This data set has as its target RAP1 (RAP1-GTPase) (UniProt P62834).

RAP1 (RAP1-GTPase), sequence (P62834 1-181): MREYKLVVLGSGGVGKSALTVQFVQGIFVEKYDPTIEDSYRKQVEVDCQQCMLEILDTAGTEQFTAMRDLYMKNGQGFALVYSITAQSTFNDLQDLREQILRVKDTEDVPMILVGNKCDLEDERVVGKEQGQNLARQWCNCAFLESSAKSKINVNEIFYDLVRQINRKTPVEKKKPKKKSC

Consider “Rap1GAP (RAP1 GTPase Activating Protein)”, for which the “RAP1 activity (active GTP-bound RAP1 pull-down, immunoblot with RAP1 antibody)” value is on record as “Enforced Rap1GAP expression in human GICs inhibited RAP1 activity”.

The values above are taken from patent US20180030546.
